To fix the notation:
B1: C35S Cox11-Trx (domain or fragment, Rhodobacter sphaeroides, UniProt P56940 32-191, looked up)
chain: NWFSRVTGFAGTTAVATEAPAEVLDRTVKVRFDASREAGMPWEFRPLQREMKLKIGETGLAFYEAYNPTDRTVAGTASYNVTPDAAGGYFAKIACFCFTEQVLAPGERVEMPVTFYVDPAIIDDPDGRYVRQITLSYTFHETALTEEQAALAAESATDVN
B2: K123L Cox11-Trx (domain or fragment, Rhodobacter sphaeroides, UniProt P56940 32-191, looked up)
chain: B1 chain with S4C, K92L
B3: K123L-E131K Cox11-Trx (domain or fragment, Rhodobacter sphaeroides, UniProt P56940 32-191, looked up)
chain: B1 chain with S4C, K92L, E100K
B4: Y110R Cox11-Trx (domain or fragment, Rhodobacter sphaeroides, UniProt P56940 32-191, looked up)
chain: B1 chain with S4C, Y79R
B5: Y110E Cox11-Trx (domain or fragment, Rhodobacter sphaeroides, UniProt P56940 32-191, looked up)
chain: B1 chain with S4C, Y79E
B6: Cox11 domain of R. sphaeroides Cox11-Trx after cleavage from Trx (domain or fragment, Rhodobacter sphaeroides, UniProt P56940 32-191, looked up)
chain: B1 chain with S4C
B7: F129Y Cox11-Trx (domain or fragment, Rhodobacter sphaeroides, UniProt P56940 32-191, looked up)
chain: B1 chain with S4C, F98Y
B8: C126A Cox11-Trx (domain or fragment, Rhodobacter sphaeroides, UniProt P56940 32-191, looked up)
chain: B1 chain with S4C, C95A
B9: E131K Cox11-Trx (domain or fragment, Rhodobacter sphaeroides, UniProt P56940 32-191, looked up)
chain: B1 chain with S4C, E100K
B10: K123E Cox11-Trx (domain or fragment, Rhodobacter sphaeroides, UniProt P56940 32-191, looked up)
chain: B1 chain with S4C, K92E
B11: F127I Cox11-Trx (domain or fragment, Rhodobacter sphaeroides, UniProt P56940 32-191, looked up)
chain: B1 chain with S4C, F96I
B12: F127Y Cox11-Trx (domain or fragment, Rhodobacter sphaeroides, UniProt P56940 32-191, looked up)
chain: B1 chain with S4C, F96Y
B13: C126A-C128A Cox11-Trx (domain or fragment, Rhodobacter sphaeroides, UniProt P56940 32-191, looked up)
chain: B1 chain with S4C, C95A, C97A
B14: C128A Cox11-Trx (domain or fragment, Rhodobacter sphaeroides, UniProt P56940 32-191, looked up)
chain: B1 chain with S4C, C97A
B15: C35S-C126A-C128A Cox11-Trx (domain or fragment, Rhodobacter sphaeroides, UniProt P56940 32-191, looked up)
chain: B1 chain with C95A, C97A
B16: K123R Cox11-Trx (domain or fragment, Rhodobacter sphaeroides, UniProt P56940 32-191, looked up)
chain: B1 chain with S4C, K92R

Changes are numbered by the printed parent chain. In names and notes the source's numbering stands. Several values for one entry are separate records, joined by “and”; a condition that tells them apart may be missing. Identical values can stand only once.

The first series concerns the target yeast Cox11-Trx (fusion of the extramembrane domain of yeast Cox11 with E. coli thioredoxin) (yeast). Kind of series: SEC. (In general: Size exclusion chromatography separates by hydrodynamic size, large species first.)
For “yeast Cox11-Trx (fusion of the extramembrane domain of yeast Cox11 with E. coli thioredoxin) (domain or fragment)”, the stoichiometry N (in general, the number of molecules, sites or subunits per partner or assembly) was 2 and 4.

The next series concerns the molecule itself. Kind of series: SEC.
As to B1, the “stoichiometry N” value was 2 and 4.

On to B2, for which the “stoichiometry N” value amounted to 2.

For B3, the “stoichiometry N” value is 2.

On to B4, for which the “stoichiometry N” value came out at 4.

As to B5, the “stoichiometry N” value came to 4.

For the molecule B6, the “stoichiometry N” value was determined as 4.

Another series deals with the molecule itself. The series is described as follows: SEC. The source holds these as a separate data set.
In the case of B2, the “stoichiometry N” value worked out at 4.

On to B3, for which the “stoichiometry N” value amounted to 4.

Turning to B7, the “stoichiometry N” value was determined as 4.

For B8, the “stoichiometry N” value was 4.

For B9, the “stoichiometry N” value was 4.

Regarding B10, the “stoichiometry N” value turned out to be 4.

Turning to B11, the “stoichiometry N” value stood at 4.

With B12, the “stoichiometry N” value worked out at 4.

For B13, the “stoichiometry N” value was 4.

Regarding B14, the “stoichiometry N” value is 4.

B15: the “stoichiometry N” value was 4.

Take B16: the “stoichiometry N” value was 4.

For the origin of these results see article PMC2994652 (Biochemistry, 2010).
